This note sets out measurements from US20180155451A1 (published 2018).

Experiment [1] concerns the target T1, FcγRIa (human, UniProt P12314 16-292).
T1 construct: extracellular domain; also called FcgRI; 1a; not shown: His tag at the C terminus
Description: SPR; He/Con_1a divided by He/Con_2b (FcγRIIb as reference). (In general: In SPR one partner is held on a chip, and binding of the other changes the refractive index at the surface.)

The target in experiment [2] is T1, FcγRIa. In words: SPR (Biacore), captured antibody, soluble FcγR; relative to GpH7-A5/GpH7-B3/GpL16-k0.
In a further experiment the target is T2, FcγRIIb (human, UniProt P31994 43-217).
T2 construct: extracellular domain; also called FcgRIIb; 2b; not shown: His tag at the C terminus
T2 sequence (looked up): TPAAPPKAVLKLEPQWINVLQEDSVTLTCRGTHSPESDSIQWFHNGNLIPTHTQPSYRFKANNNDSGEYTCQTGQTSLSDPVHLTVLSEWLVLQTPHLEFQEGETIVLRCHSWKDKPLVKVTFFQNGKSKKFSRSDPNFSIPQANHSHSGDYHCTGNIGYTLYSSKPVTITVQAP
The experiment is described as above.

T1 sequence (P12314 16-292): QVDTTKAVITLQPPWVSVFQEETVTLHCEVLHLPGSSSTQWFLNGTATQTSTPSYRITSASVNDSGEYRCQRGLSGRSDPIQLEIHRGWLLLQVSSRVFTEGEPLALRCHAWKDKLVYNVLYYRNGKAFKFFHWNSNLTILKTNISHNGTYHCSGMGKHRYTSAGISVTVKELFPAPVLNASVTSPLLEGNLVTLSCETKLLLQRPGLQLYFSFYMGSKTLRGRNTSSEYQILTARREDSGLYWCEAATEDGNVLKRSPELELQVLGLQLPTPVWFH

B1: GpH7-A5/GpH7-B3 variant D265_16H/GpL16-k0 (antibody, human IgG1, kappa)
heavy 1: not shown
heavy 2: not shown
light: DIVMTQSPLSLPVTPGEPASISCQASESLVHSNRNTYLHWYLQKPGQSPQLLIYKVSNRFSGVPDRFSGSGSGTDFTLKISRVEAEDVGVYYCSQNTHVPPTFGQGTKVEIERTVAAPSVFIFPPSDEQLKSGTASVVCLLNNFYPREAKVQWKVDNALQSGNSQESVTEQDSKDSTYSLSSTLTLSKADYEKHKVYACEVTHQGLSSPVTKSFNRGEC
notes: He Ab: mutation only in the GpH7-B3 H chain; EU numbering; also called He Ab
For the molecule B1, the “Ia/IIb He_1a/2b” value in the experiment with FcγRIa [1] is 2.23 ratio. In addition, the He/Con_1a with FcγRIa [2] is 85.4 relative, HeCon Ab = 100. In addition, the He/Con_2b with FcγRIIb is 38.3 relative, HeCon Ab = 100.

B2: GpH7-A5/GpH7-B3 variant S267_16H/GpL16-k0 (antibody, human IgG1, kappa)
heavy 1: not shown
heavy 2: not shown
light: B1 light
notes: as for B1
As to B2, the “Ia/IIb He_1a/2b” value with FcγRIa [1] amounted to 1.52 ratio. For the same molecule, the He/Con_1a with FcγRIa [2] is 100 relative, HeCon Ab = 100. The He/Con_2b in the experiment with FcγRIIb was 65.9 relative, HeCon Ab = 100.

B3: GpH7-A5/GpH7-B3 variant D265_18N/GpL16-k0 (antibody, human IgG1, kappa)
heavy 1: not shown
heavy 2: not shown
light: B1 light
notes: as for B1
On to B3, for which the “Ia/IIb He_1a/2b” value with FcγRIa [1] was found to be 4.52 ratio. In addition, the He/Con_1a in the experiment with FcγRIa [2] is 27.7 relative, HeCon Ab = 100. Also, the He/Con_2b in the experiment with FcγRIIb is 6.1 relative, HeCon Ab = 100.

B4: GpH7-A5/GpH7-B3 variant S267_20W/GpL16-k0 (antibody, human IgG1, kappa)
heavy 1: not shown
heavy 2: not shown
light: B1 light
notes: as for B1
For B4, the “Ia/IIb He_1a/2b” value with FcγRIa [1] was determined as 1.74 ratio. The He/Con_1a with FcγRIa [2] was 99.4 relative, HeCon Ab = 100. Further, the He/Con_2b with FcγRIIb is 57.2 relative, HeCon Ab = 100.

B5: GpH7-A5/GpH7-B3 variant S239_20W/GpL16-k0 (antibody, human IgG1, kappa)
heavy 1: not shown
heavy 2: not shown
light: B1 light
notes: as for B1
On to B5, for which the “Ia/IIb He_1a/2b” value with FcγRIa [1] turned out to be 2.06 ratio. In addition, the He/Con_1a with FcγRIa [2] was 92.7 relative, HeCon Ab = 100. In addition, the He/Con_2b with FcγRIIb is 45.1 relative, HeCon Ab = 100.

B6: GpH7-A5/GpH7-B3 variant D265_19Q/GpL16-k0 (antibody, human IgG1, kappa)
heavy 1: not shown
heavy 2: not shown
light: B1 light
notes: as for B1
In the case of B6, the “Ia/IIb He_1a/2b” value with FcγRIa [1] was determined as 2.66 ratio. The He/Con_1a with FcγRIa [2] is 88.8 relative, HeCon Ab = 100. Further, in the experiment with FcγRIIb, the He/Con_2b is 33.4 relative, HeCon Ab = 100.

B7: GpH7-A5/GpH7-B3 variant S267_18N/GpL16-k0 (antibody, human IgG1, kappa)
heavy 1: not shown
heavy 2: not shown
light: B1 light
notes: as for B1
With B7, in the experiment with FcγRIa [1], the “Ia/IIb He_1a/2b” value stood at 2.15 ratio. In addition, the He/Con_1a in the experiment with FcγRIa [2] was 102 relative, HeCon Ab = 100. For the same molecule, in the experiment with FcγRIIb, the He/Con_2b was 47.7 relative, HeCon Ab = 100.

B8: GpH7-A5/GpH7-B3 variant S267_04F/GpL16-k0 (antibody, human IgG1, kappa)
heavy 1: not shown
heavy 2: not shown
light: B1 light
notes: as for B1
In the case of B8, the “Ia/IIb He_1a/2b” value with FcγRIa [1] amounted to 2.04 ratio. Moreover, the He/Con_1a in the experiment with FcγRIa [2] is 97.7 relative, HeCon Ab = 100. Besides, the He/Con_2b with FcγRIIb is 48 relative, HeCon Ab = 100.

B9: GpH7-A5/GpH7-B3 variant S267_15Y/GpL16-k0 (antibody, human IgG1, kappa)
heavy 1: not shown
heavy 2: not shown
light: B1 light
notes: as for B1
B9: the “Ia/IIb He_1a/2b” value in the experiment with FcγRIa [1] was found to be 2.48 ratio. Also, in the experiment with FcγRIa [2], the He/Con_1a was 94.2 relative, HeCon Ab = 100. For the same molecule, in the experiment with FcγRIIb, the He/Con_2b is 37.9 relative, HeCon Ab = 100.

B10: GpH7-A5/GpH7-B3 variant S267_05P/GpL16-k0 (antibody, human IgG1, kappa)
heavy 1: not shown
heavy 2: not shown
light: B1 light
notes: as for B1
Turning to B10, in the experiment with FcγRIa [1], the “Ia/IIb He_1a/2b” value came out at 2.91 ratio. In addition, in the experiment with FcγRIa [2], the He/Con_1a is 91.8 relative, HeCon Ab = 100. In addition, the He/Con_2b with FcγRIIb is 31.5 relative, HeCon Ab = 100.

B11: GpH7-A5/GpH7-B3 variant D265_20W/GpL16-k0 (antibody, human IgG1, kappa)
heavy 1: not shown
heavy 2: not shown
light: B1 light
notes: as for B1
With B11, the “Ia/IIb He_1a/2b” value in the experiment with FcγRIa [1] came out at 45.6 ratio. The He/Con_1a with FcγRIa [2] was 51.5 relative, HeCon Ab = 100. In addition, in the experiment with FcγRIIb, the He/Con_2b is 1.1 relative, HeCon Ab = 100.

B12: GpH7-A5/GpH7-B3 variant S267_11K/GpL16-k0 (antibody, human IgG1, kappa)
heavy 1: not shown
heavy 2: not shown
light: B1 light
notes: as for B1
With B12, the “Ia/IIb He_1a/2b” value with FcγRIa [1] came to 7.65 ratio. For the same molecule, in the experiment with FcγRIa [2], the He/Con_1a is 93.3 relative, HeCon Ab = 100. Also, in the experiment with FcγRIIb, the He/Con_2b is 12.2 relative, HeCon Ab = 100.

B13: GpH7-A5/GpH7-B3 variant S267_12R/GpL16-k0 (antibody, human IgG1, kappa)
heavy 1: not shown
heavy 2: not shown
light: B1 light
notes: as for B1
For B13, in the experiment with FcγRIa [1], the “Ia/IIb He_1a/2b” value turned out to be 8.21 ratio. Further, in the experiment with FcγRIa [2], the He/Con_1a is 92.7 relative, HeCon Ab = 100. Moreover, the He/Con_2b in the experiment with FcγRIIb was 11.3 relative, HeCon Ab = 100.

B14: GpH7-A5/GpH7-B3 variant H268_06M/GpL16-k0 (antibody, human IgG1, kappa)
heavy 1: not shown
heavy 2: not shown
light: B1 light
notes: as for B1
On to B14, for which, in the experiment with FcγRIa [1], the “Ia/IIb He_1a/2b” value was 1.59 ratio. In addition, the He/Con_1a with FcγRIa [2] was 105 relative, HeCon Ab = 100. In addition, in the experiment with FcγRIIb, the He/Con_2b is 65.7 relative, HeCon Ab = 100.
